The results in this text go back to US20070196860.

The target in the data set is SEQ ID NO. 25, Ac-…dPSxG-NH2.

B1: Akt1 (protein)
chain: MNDVAIVKEGWLHKRGEYIKTWRPRYFLLKNDGTFIGYKERPQDVDQRESPLNNFSVAQCQLMKTERPRPNTFIIRCLQWTTVIERTFHVETPEEREEWATAIQTVADGLKRQEEETMDFRSGSPSDNSGAEEMEVSLAKPKHRVTMNEFEYLKLLGKGTFGKVILVKEKATGRYYAMKILKKEVIVAKDEVAHTLTENRVLQNSRHPFLTALKYSFQTHDRLCFVMEYANGGELFFHLSRERVFSEDRARFYGAEIVSALDYLHSEKNVVYRDLKLENLMLDKDGHIKITDFGLCKEGIKDGATMKTFCGTPEYLAPEVLEDNDYGRAVDWWGLGVVMYEMMCGRLPFYNQDHEKLFELILMEEIRFPRTLGPEAKSLLSGLLKKDPTQRLGGGSEDAKEIMQHRFFANIVWQDVYEKKLSPPFKPQVTSETDTRYFDEEFTAQMITITPPDQDDSMECVDSERRPHFPQFSYSASGTA
With B1, the “reaction rate, PDGF-treated NIH3T3 lysate” value is “The PDGF-treated sample showed a reaction rate of 1.13 RFU/sec” and the “reaction rate, control treated NIH3T3 lysate” value was “the control treated sample had a markedly reduced rate of 0.12 RFU/sec”.

B2: Akt3 (protein)
chain: SDVTIVKEGWVQKRGEYIKNWRPRYFLLKTDGSFIGYKEKPQDVDLPYPLNNFSVAKCQLMKTERPKPNTFIIRCLQWTTVIERTFHVDTPEEREEWTEAIQAVADRLQRQEEERMNCSPTSQIDNIGEEEMDASTTHHKRKTMNDFDYLKLLGKGTFGKVILVREKASGKYYAMKILKKEVIIAKDEVAHTLTESRVLKNTRHPFLTSLKYSFQTKDRLCFVMEYVNGGELFFHLSRERVFSEDRTRFYGAEIVSALDYLHSGKIVYRDLKLENLMLDKDGHIKITDFGLCKEGITDAATMKTFCGTPEYLAPEVLEDNDYGRAVDWWGLGVVMYEMMCGRLPFYNQDHEKLFELILMEDIKFPRTLSSDAKSLLSGLLIKDPNKRLGGGPDDAKEIMRHSFFSGVNWQDVYDKKLVPPFKPQVTSETDTRYFDEEFTAQTITITPPEKYDDDGMDGMDNERRPHFPQFSYSASGRE
As to B2, the “reaction rate, PDGF-treated NIH3T3 lysate” value is “The PDGF-treated sample showed a reaction rate of 1.24 RFU/sec” and the “reaction rate, control treated NIH3T3 lysate” value is recorded as “the control treated sample had a markedly reduced rate of 0.28 RFU/sec”.
